Experimental data from patent US20100136009A1 (DIADEXUS, published 2010).
Positions count from the first letter of the chain named.

B1: Ovr110.Q19 (antibody, IgG1, V domains shown)
VH: DVLLQESGPGLVKASQSLSLTCSVTGYSITSGYFWNWIRQFPGNKLEWMGYISYDGGNSYNPSLKNRISITRDTSKNQFFLRMKSVTAEDTATYYCARKALWLRFDYWGQGTTLTVSS
VL: EIVLTQSPAIMSVYLGEKVTMTCSASLSVSYMHWYQQKSSTSPKLWIYDTSKVASGVPGRFSGSGSGNSYSLTISSMEAEDVATYYCFQGSGYPFTFGSGTKLEIKR
notes: Mouse hybridoma MAb; also called Q19.6; Ovr110.Q19.6
B2: Ovr110.Q11 (antibody, V domains shown)
VH: B1 VH with L3Q, A14P, N36S, Y51F, G57T, M83L, K84N, A88K, A100L
VL: B1 VL with I2N, V13A, Y14S, L15P, L27S, V53L
notes: Mouse hybridoma MAb; also called Q11.12.3; Ovr110.Q11.12.3
B3: Ovr110.Q23 (antibody, IgG1, V domains shown)
VH: QVQLQQSGAELMKPGASVKISCKATGYTFSSYWIEWVKQRPGHGLEWIGEILPGSGITKYNEKFKTKATFTADTSSNTAYMQLSSLTSEDSAVYYCARYYFGSVNFYFDCWGQGTTLTVSS
VL: QAVVTQESALTTSPGETVTLTCRSSTGAVTTSNYANWVQEKPDHLFTGLIGGTDNRPPGVPARFSGSLIGDKAALTITGTQTEDEAIYFCALWYSNHWVFGGGTKLTVLG
notes: Mouse hybridoma MAb; also called Q23.6
B4: Ovr110.Q27 (antibody, IgG1, V domains shown)
VH: QVQPQQSGAELARPGASVKLSCKASGYTFTTYWMQWVKQRPGQGLEWIGAIYPGDGDTRYTQKFKGKATLTADKSSSTAYMQLSSLASEDSAVYYCAINWGYAMDYWGQGTSVTVSS
VL: DIVLTQSHKIMSTSVGDRVSITCKASQDVRTAVAWYQQKPGQSPKLLIKSASYRYTGVPDRFSGSGSGTDFTFTISSVQAEDLAVYYCQQHYSNPTFGGGTKLEIKR
notes: Mouse hybridoma MAb; also called Q27.4; Q27.2
B5: Ovr110.Q12 (antibody, IgG1, V domains shown)
VH: QVQLQQPGAELVKPGATVKLSCKTSGYTFTSYWMHWVKQRPGQGLEWIGEIDPSDSYTNYNQKFKGKATLTVDTSSTTAYMQLSSLTSEDSAVYYCAREYGNNDAMDYWGQGTSVTVSS
VL: QIVLTQSPAIMSASPGEKVTMTCSASSGISYMHWYQQKPGTTPKRWIYDASKLASGVPSRFSGSGSGTSYSLTISSMEAEDAATYYCHQRRSYPFTFGSGTKLEIKR
notes: Mouse hybridoma MAb; also called Q12.2; Ovr110.Q12.2

Experiments:
[1] = molecular target: transferrin receptor (TfnR, CD71) on cells (UniProt P02786); assay: cell-based or functional assay
[2] = molecular target: T1, native Ovr110 protein on tumor cells (ZR-75-1, SKBR3, RL95.2, OVCAR3) (human, UniProt Q7Z7D3 25-282); assay: cell-based or functional assay
T1 sequence (looked up): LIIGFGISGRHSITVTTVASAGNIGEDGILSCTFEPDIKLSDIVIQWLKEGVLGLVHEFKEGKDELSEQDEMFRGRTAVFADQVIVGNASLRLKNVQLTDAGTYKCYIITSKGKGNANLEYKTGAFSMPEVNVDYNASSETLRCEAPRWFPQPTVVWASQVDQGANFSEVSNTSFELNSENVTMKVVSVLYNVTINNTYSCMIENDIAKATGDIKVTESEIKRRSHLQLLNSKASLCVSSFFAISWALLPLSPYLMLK

[3] = molecular target: T2, recombinant Ovr110-hFc encoded by Ovr110 Construct 2 (human); assay: competition ELISA; row = unlabeled blocking MAb; competitor = biotinylated detecting MAb Q19.6
T2 construct: Captured on plates by goat anti-human IgG Fc; also called Ovr110-hFc (with TM)
T2 chain: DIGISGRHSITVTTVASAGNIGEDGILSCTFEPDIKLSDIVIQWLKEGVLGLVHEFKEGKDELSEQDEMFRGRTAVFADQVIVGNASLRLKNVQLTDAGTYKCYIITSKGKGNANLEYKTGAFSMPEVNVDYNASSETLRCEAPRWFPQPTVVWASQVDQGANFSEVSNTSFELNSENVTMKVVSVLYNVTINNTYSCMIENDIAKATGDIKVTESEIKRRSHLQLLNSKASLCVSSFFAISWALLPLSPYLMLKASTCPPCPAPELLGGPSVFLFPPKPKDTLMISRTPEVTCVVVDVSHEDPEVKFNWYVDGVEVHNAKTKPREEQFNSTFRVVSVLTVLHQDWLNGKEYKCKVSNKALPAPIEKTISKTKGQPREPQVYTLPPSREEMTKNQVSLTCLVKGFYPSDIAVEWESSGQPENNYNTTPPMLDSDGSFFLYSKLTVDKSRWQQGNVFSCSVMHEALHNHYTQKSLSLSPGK

[4] = molecular target: T2, recombinant Ovr110-hFc encoded by …; assay: competition ELISA; row = unlabeled blocking MAb; competitor = biotinylated detecting MAb Q15.2
[5] = molecular target: T1, native Ovr110 protein on tumor cells …; assay: flow cytometry; hybridoma supernatant; SKBR3 cells
[6] = molecular target: T1, native Ovr110 protein on tumor cells …; assay: flow cytometry; purified MAb; ZR-75-1 cells
[7] = molecular target: T2, recombinant Ovr110-hFc encoded by …; assay: competition ELISA; row = unlabeled blocking MAb; competitor = biotinylated detecting MAb Q11.12.3
[8] = molecular target: T3, Ovr110 (amino acids 1-282; Ovr110 Construct 1 without the 6-His tag) expressed on transiently transfected … (human, UniProt Q7Z7D3 25-282); assay: flow cytometry; purified MAb; Ovr110-transfected 293F cells
T3 construct: signal peptide not removed here
T3 sequence: T1 sequence (looked up)

[9] = molecular target: T2, recombinant Ovr110-hFc encoded by …; assay: competition ELISA; row = unlabeled blocking MAb; competitor = biotinylated detecting MAb C6.3
[10] = molecular target: T1, native Ovr110 protein on tumor cells …; assay: flow cytometry titration of fluorescein-labeled MAb on ZR75-1 cells; one-site fit
[11] = molecular target: T2, recombinant Ovr110-hFc encoded by …; assay: competition ELISA; row = unlabeled blocking MAb; competitor = biotinylated detecting MAb Q23.6
[12] = molecular target: T2, recombinant Ovr110-hFc encoded by …; assay: competition ELISA; row = unlabeled blocking MAb; competitor = biotinylated detecting MAb Q3.1
[13] = molecular target: T3, Ovr110 (amino acids 1-282; Ovr110 …); assay: flow cytometry; hybridoma supernatant; Ovr110-transfected 293F cells
[14] = molecular target: T2, recombinant Ovr110-hFc encoded by …; assay: competition ELISA; row = unlabeled blocking MAb; competitor = biotinylated detecting MAb Q12.2
[15] = molecular target: T1, native Ovr110 protein on tumor cells …; assay: flow cytometry; purified MAb; SKBR3 cells
[16] = molecular target: T2, recombinant Ovr110-hFc encoded by …; assay: competition ELISA; row = unlabeled blocking MAb; competitor = biotinylated detecting MAb Q27.4
[17] = molecular target: T1, native Ovr110 protein on tumor cells …; assay: cell-based or functional assay; remark: listed apart in the source
[18] = molecular target: T2, recombinant Ovr110-hFc encoded by …; assay: competition ELISA; row = unlabeled blocking MAb; competitor = biotinylated detecting MAb A87.1

Chain of transferrin receptor (TfnR, CD71) on cells (P02786 whole entry): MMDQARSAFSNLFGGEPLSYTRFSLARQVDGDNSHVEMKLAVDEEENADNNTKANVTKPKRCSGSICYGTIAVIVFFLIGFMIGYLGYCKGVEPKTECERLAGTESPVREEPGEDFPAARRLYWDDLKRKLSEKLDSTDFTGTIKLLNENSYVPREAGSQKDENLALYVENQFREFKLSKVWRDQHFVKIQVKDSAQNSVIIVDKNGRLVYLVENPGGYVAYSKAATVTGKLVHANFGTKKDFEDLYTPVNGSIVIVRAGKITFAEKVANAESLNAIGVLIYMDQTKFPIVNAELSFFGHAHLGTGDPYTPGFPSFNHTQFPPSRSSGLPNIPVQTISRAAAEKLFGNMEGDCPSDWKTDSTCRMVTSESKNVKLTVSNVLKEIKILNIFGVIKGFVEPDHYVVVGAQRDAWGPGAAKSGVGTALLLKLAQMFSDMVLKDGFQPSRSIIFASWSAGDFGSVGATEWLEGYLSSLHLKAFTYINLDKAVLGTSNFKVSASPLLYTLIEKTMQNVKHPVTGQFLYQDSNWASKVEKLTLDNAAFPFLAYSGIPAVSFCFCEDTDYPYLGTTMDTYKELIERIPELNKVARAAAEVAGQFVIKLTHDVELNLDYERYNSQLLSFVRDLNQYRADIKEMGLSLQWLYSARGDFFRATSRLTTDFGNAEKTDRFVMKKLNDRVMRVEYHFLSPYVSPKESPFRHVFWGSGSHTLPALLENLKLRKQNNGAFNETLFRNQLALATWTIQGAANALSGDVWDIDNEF

signal/noise ratio [3] | signal/noise ratio [4] | % Cells Positive [5] [%] | Mean Fluorescence Intensity (MFI) [5] | % Cells Positive [6] [%] | MFI [6] | signal/noise ratio [7] | % Cells Positive [8] [%] | MFI [8] | signal/noise ratio [9] | Kd [10] [nM] | signal/noise ratio [11] | signal/noise ratio [12] | % Cells Positive [13] [%] | Mean Fluorescence Intensity (MFI) [13] | signal/noise ratio [14] | % Cells Positive [15] [%] | MFI [15] | signal/noise ratio [16] | signal/noise ratio [18] | further results | Molecule
 |  |  |  |  |  |  |  |  |  |  |  |  |  |  |  |  |  |  |  | Percentage growth compared to wells with media alone; HCT116; MAb 2.0 ug/mL with 1.0 ug/mL mAb-ZAP [1]: 24.9%; Percentage growth compared to wells with media alone; SKBR3; MAb 0.4 ug/mL with 1.0 ug/mL mAb-ZAP [1]: 18.4%; Percentage growth compared to wells with media alone; SKBR3; MAb 2.0 ug/mL with 1.0 ug/mL mAb-ZAP [1]: 44.6%; Percentage growth compared to wells with media alone; ZR-75-1; MAb 0.4 ug/mL with 1.0 ug/mL mAb-ZAP [1]: 35%; Percentage growth compared to wells with media alone; ZR-75-1; MAb 2.0 ug/mL with 1.0 ug/mL mAb-ZAP [1]: 49.3% | anti-TfnR MAb 5E9 (ATCC) (antibody)
1 | 11.7 | 98.9 | 10.4 | 95.6 | 4.11 | 1 | 91.9 | 5.25 | 1.2 | 0.53 | 4.8 | 1.3 | 95.7 | 24.5 | 1.1 | 95.2 | 4.64 | 4.7 | 6.6 | Percentage growth compared to wells with media alone; SKBR3; MAb 0.4 ug/mL with 1.0 ug/mL mAb-ZAP [2]: 49.8%; Percentage growth compared to wells with media alone; SKBR3; MAb 2.0 ug/mL with 1.0 ug/mL mAb-ZAP [2]: 25%; Percentage growth compared to wells with media alone; ZR-75-1; MAb 0.4 ug/mL with 1.0 ug/mL mAb-ZAP [17]: 28.1%; Percentage growth compared to wells with media alone; ZR-75-1; MAb 2.0 ug/mL with 1.0 ug/mL mAb-ZAP [17]: 46.5% | B1
1 | 11.7 | 98.7 | 9.71 | 96.4 | 4.68 | 1 | 93.8 | 5.47 | 1.2 | 0.74 | 4.5 | 1.3 | 95.7 | 26 | 1 | 98.4 | 5.95 | 4.7 | 6.4 |  | B2
6 | 2.9 | 97.1 | 4.35 | 92.7 | 3.25 | 5.2 | 92.6 | 4.98 | 1.2 | 5.66 | 1 | 1.4 | 94.7 | 17.9 | 2.8 | 93.9 | 3.85 | 2.2 | 6.7 | Percentage growth compared to wells with media alone; SKBR3; MAb 0.4 ug/mL with 1.0 ug/mL mAb-ZAP [2]: 68.9%; Percentage growth compared to wells with media alone; SKBR3; MAb 2.0 ug/mL with 1.0 ug/mL mAb-ZAP [2]: 73.6%; Percentage growth compared to wells with media alone; ZR-75-1; MAb 0.4 ug/mL with 1.0 ug/mL mAb-ZAP [17]: 37.5%; Percentage growth compared to wells with media alone; ZR-75-1; MAb 2.0 ug/mL with 1.0 ug/mL mAb-ZAP [17]: 45.5% | B3
6.5 | 11.8 | 87.7 | 1.48 | 93.3 | 2.92 | 5.5 | 95.2 | 5.48 | 1.2 | 4.76 | 1 | 1.4 | 91.8 | 6.09 | 3.1 | 94.8 | 3.9 | 1 | 6.7 | Percentage growth compared to wells with media alone; SKBR3; MAb 0.4 ug/mL with 1.0 ug/mL mAb-ZAP [2]: 68.9%; Percentage growth compared to wells with media alone; SKBR3; MAb 2.0 ug/mL with 1.0 ug/mL mAb-ZAP [2]: 73.6%; Percentage growth compared to wells with media alone; ZR-75-1; MAb 0.4 ug/mL with 1.0 ug/mL mAb-ZAP [17]: 60.6%; Percentage growth compared to wells with media alone; ZR-75-1; MAb 2.0 ug/mL with 1.0 ug/mL mAb-ZAP [17]: 69.5% | B4
1.1 | 11.6 | 98.8 | 12 | 94.1 | 3.76 | 1.2 | 94.3 | 5.25 | 1.2 | 0.64 | 3.6 | 1.4 | 96.6 | 31.8 | 1 | 95.3 | 4.86 | 4.3 | 6.7 |  | B5
